Measurements reported in US20260055369A1, “METHOD FOR GENERATING CELLS OF THE T CELL LINEAGE WITH ENGINEERING BROADLY REACTIVE HUMAN NOTCH LIGAND” (H. Lee Moffitt Cancer Center and Research Institute, Inc., priority 2022, published 2026).

Test system: Notch1 (EGF6-13)
Test: SPR determination of equilibrium dissociation constants
Type: binding, human
Details: for off-rate from fitted SPR sensograms: series DLL4.v1, DLL4.v2, Delta^MAX, FIG. 2C Notch1 EGF6-13; for binding affinity compared to WT DLL4: stated for all four human Notch receptors (Notch1-4)
Procedure: Equilibrium dissociation constants were determined by surface plasmon resonance using a Biacore T200 instrument (GE Healthcare). Approximately 100 resonance units (RU) of biotinylated Notch extracellular fragments (Notch1 (EGF6-13), Notch2 (EGF6-13), Notch3 (EGF5-12), Notch4 (7-12), and mouse Notch1 (EGF6-13)) were immobilized on individual flow cells at 5 μl/min using a streptavidin-coated sensor chip (Series S Sensor chip SA, GE Healthcare). Three-fold serial dilutions of recombinant DLL4 proteins (N-EGF5) starting at 50 μM (WT DLL4), 18 μM (DLL4.v2), and 6 μM (DLL4.v1 and Delta^MAX) were flowed over the chip at 25° C. in SPR buffer (20 mM HEPES pH 7.4, 150 mM NaCl, 1 mM calcium chloride, 0.1% BSA supplemented with 0.005% surfactant P20). Association (“on-rate”) and dissociation (“off-rate”) phases were performed at 10 μl/min for 120 seconds and 300 seconds, respectively. The sensor chip was regenerated after each injection with 30-second washes of 2.25M Magnesium Chloride containing 25% Ethylene Glycol at 50 μL/min. Data collection rate was performed at 10 Hz, and curves were reference-subtracted from a flow cell containing 100 RU of a negative control non-related protein (biotinylated mouse RNF43 PA domain). The maximum RU for each experiment was normalized to a value of 100% and plotted as a function of concentration using Prism 9 software (GraphPad). Steady-state binding and kinetic curves were fitted using the Biacore T200 evaluation software to a 1:1 Langmuir model to determine the KD values.

Notch1 (EGF6-13), sequence (P46531 257-526 limits assumed): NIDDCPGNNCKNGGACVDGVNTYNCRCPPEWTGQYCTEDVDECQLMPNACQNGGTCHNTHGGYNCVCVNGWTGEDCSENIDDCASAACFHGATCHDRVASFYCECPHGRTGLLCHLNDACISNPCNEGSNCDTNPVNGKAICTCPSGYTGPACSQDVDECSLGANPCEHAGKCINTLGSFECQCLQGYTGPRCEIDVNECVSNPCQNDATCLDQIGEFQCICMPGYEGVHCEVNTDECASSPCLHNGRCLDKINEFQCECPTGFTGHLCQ

| Molecule | off-rate from fitted SPR sensograms | binding affinity compared to WT DLL4 |
| --- | --- | --- |
| DLL4.v2: human DLL4 clone with five mutations N257P, T271L, F280Y, S301R, Q305P; matches SEQ ID NO: 5 (protein) SGVFQLQLQEFINERGVLASGRPCEPGCRTFFRVCLKHFQAVVSPGPCTFGTVSTPVLGTNSAVRDDSSGGGRNPLQLPFNFTWPGTFSLIIEAWHAPGDDLRPEALPPDALISKIAIQGSLAVGQNWLLDEQTSTLTRLRYSYRVICSDNYYGDNCSRLCKKRNDHFGHYVCQPDGNLSCLPGWTGEYCQQPICLSGCHEQNGYCSKPAECLCRPGWQGRLCNECIPHPGCRHGTCSTPWQCLCDEGWGGLYCDQDLNYCTHHSPCKNGATCRNSGPRSYTCTCRPGYTGVDCELELSECDSNPCRNGGSCKDQEDGYHCLCPPGYYGLHCEHSTLSCADSPCFNGGSCRERNQGANYACECPPNFTGSNCE | progressive decreases in off-rate | enhanced affinity |
| DLL4.v1: human DLL4 construct containing the five E12 mutations (Site 1+Site 2); sequence matches SEQ ID NO: 2 (protein) SSVFQLQLQEFINERGVLASGRPCEPGCRTFFRVCLKHFQAVVSPGPCTFGTVSTPVLGTNSFAVRDDSSGGGRNPLQLPLNFTWPGTFSLIIEAWHAPGDDLRPEALPPDALISKFAIQGSLAVGQNWLLDEQTSTLTRLRYSYRVICSDNYYGDNCSRLCKKRNDYFGHYVCQPDGNPSCLPGWTGEYCQQPICLSGCHEQNGYCSKPAECLCRPGWQGRLCNECIPHNGCRHGTCSTPWQCTCDEGWGGLFCDQDLNYCTHHSPCKNGATCSNSGQRSYTCTCRPGYTGVDCELELSECDSNPCRNGGSCKDQEDGYHCLCPPGYYGLHCEHSTLSCADSPCFNGGSCRERNQGANYACECPPNFTGSNCE | progressive decreases in off-rate | enhanced affinity |
